Assay results: article PMC11609826 (Cancer Discovery, 2024)

What was measured:
Assay in all cases: ELISA
[1] = molecular target: B- and T-lymphocyte attenuator (BTLA), recombinant (Homo sapiens (assumed), UniProt Q7Z6A9)
[2] = molecular target: inducible T-cell costimulator (ICOS), recombinant (Homo sapiens (assumed), UniProt Q9Y6W8)
[3] = molecular target: CD28, recombinant (Homo sapiens (assumed), UniProt P10747)
[4] = molecular target: PD-1, recombinant (Homo sapiens (assumed), UniProt Q15116)

Measured: binding result

inducible T-cell costimulator (ICOS), recombinant, sequence (Q9Y6W8 21-199): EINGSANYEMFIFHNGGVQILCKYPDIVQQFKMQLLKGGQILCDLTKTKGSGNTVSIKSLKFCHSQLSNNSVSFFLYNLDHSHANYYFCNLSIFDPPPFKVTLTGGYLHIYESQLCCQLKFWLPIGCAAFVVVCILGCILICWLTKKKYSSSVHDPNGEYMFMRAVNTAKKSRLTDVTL
PD-1, recombinant, sequence (Q15116 25-288): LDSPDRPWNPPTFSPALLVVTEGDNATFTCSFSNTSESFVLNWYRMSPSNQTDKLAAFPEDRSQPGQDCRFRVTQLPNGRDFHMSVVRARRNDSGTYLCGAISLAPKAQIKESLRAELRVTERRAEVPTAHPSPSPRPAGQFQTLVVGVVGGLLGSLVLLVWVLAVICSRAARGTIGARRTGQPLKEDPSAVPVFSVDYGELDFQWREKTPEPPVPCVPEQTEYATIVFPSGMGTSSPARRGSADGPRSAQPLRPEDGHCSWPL

B1: Botensilimab (antibody, V domains shown)
VH: EVQLVESGGGLVKPGGSLRLSCAASGFTFSSYSMNWVRQAPGKGLEWVSSISSSSSYIYYAESVKGRFTISRDNAKNSLYLQMNSLRAEDTAVYYCARVGLFGPFDIWGQGTLVTVSS
VL: EIVLTQSPGTLSLSPGERATLSCRASQSVSRYLGWYQQKPGQAPRLLIYGASTRATGIPDRFSGSGSGTDFTLTITRLEPEDFAVYYCQQYGSSPWTFGQGTKVEIK
no binding (tested: 1,000 ng/mL): [1] | [2] | [3] | [4]
